In patent US20250034594A1, “RNA-GUIDED GENOME RECOMBINEERING AT KILOBASE SCALE” (THE BOARD OF TRUSTEES OF THE LELAND STANFORD JUNIOR …, priority 2021, published 2025):

B1: SSAP_192: SEQ ID NO: 361; Streptococcus pyogenes (protein)
chain: SDLSVAAAAAKTQPTMKDLVEAQLPAIERQLGGAMNSAAFVRAVLSEIGKSPDLMAADPKTLLGGVMLAAQLRLEIGSGLGEFYLTPRKERGRQICLPIIGYQGLIKLALRSEFVMNVQAFLVRQGDQFSYGANAERGMFYDWVPQDFEETRDWIGVVATARMRSGGTTWVYLTRTQVIDRRPSYWNSTPWKTNEDEMVKKTAVRALAKFLPKSTDLGRALEADEAKVQTLRGLDEVEVTRLDDEADTVVVQEQNPMSRTPEEQAEDAEAQR
modifications: Streptococcus pyogenes
B2: SSAP_184: SEQ ID NO: 353; Streptomyces scabiei (protein, listed as Streptomyces scabiei)
chain: DADRMARIALTLIRKNPDLATCSGESFLGALMTCSQLGFEPGSPTQEAFIVPYKGEATFQLGYQGMVTLFYQHPMASSVKVETVRENDYFEHEEGLEEKLVHRPCKTGPRGKAIAYYSVARLINGGRTFKVMYPAEIEERREKLPSKNSPAWRNSYDEMAKKTVLRNHFKALPKSAELARAMAHDGTVRTDWQPDAIDVPPEYLSEPQRPELGTGSTQ
B3: SSAP_210: SEQ ID NO: 379; Rufibacter latericius (protein, listed as Rufibacter latericius)
chain: SNQLQVAREQVISAQKSFKNVPNNKLDFEREAGFAMQMIQSNPFLASMDANSIRNCIVNVALTGLTLNPVLKLAYLVPRKGKLILDPSYMGLINVLVTSGAAKKIEADVVCENDFFDYEKGTNGFIKHKPSLSSRGEIIAAYAIAHLPNGEVQFEIMNREELEKVRKSSEAAKKGSSPYDGWASEMMRKAPIRRLFKYLPKHNIPDQVINTLSLDEQNNGVDFSAQKQEAFKGKAADFFEDEPANTVDADYTDMSHEEADNELAA
B4: SSAP_190: SEQ ID NO: 359; Microbacterium laevaniformans OR221 (protein)
chain: TDLSTVAAAAKQNPTMKDLVEAQLPAIERQLGGTMNSDAFVRAVLSEITKSPDLMQADPKTLLGGVMLAAQLRLEIGSGLGEFYLTPRKDHGRMICLPIVGFQGMVKLALRSEFVTNVQAFIVREGDDFTYGANAERGMFYDWTPKDFEEKRPMVGVVATARMKQGGTTWAYLTREQVEDRRPSYWQKTPWGSHPDEMAKKTAVRALAKYLPKATDLGRAIEADEQKVQHVKGLDEVTVTRLDDEPETVVVQETTDAWAATPVAEVQP
modifications: Microbacterium laevaniformans
notes: Microbacterium laevaniformans OR221
B5: SSAP_220: SEQ ID NO: 389; Amycolatopsis circi (protein, listed as Amycolatopsis circi)
chain: ISQTVTTAVAQQKDSSPAALVRKYRTDFATVLPSHIKPETWLRIATGALRRSPQLANAAKRNPSSLLVALLEAARKGLEPGTEQFYLVPRKGKNGPEVLGITGYQGEVELMYRAGAVSSVKVEVVREHDTFAYNPGEHDRPVHEIDWRADRGDLVLTYAYAVMRDGATSNVVVLSADDIAVILKKADGADSPFSPWQWNPKAMWLKSAARQLAKWVPTSAEYVRLPDVPLESLPPAKPLDLPRVDDVVDAEIVEDWPTAPDDTADGAR
B6: SSAP_288: SEQ ID NO: 457; Clostridium thermobutyricum (protein, listed as Clostridium thermobutyricum)
chain: QSTGDIVFPQNYNYSNALKSAQLILAETVDRNKVPVLQSCSKPSICNALLDMVIQGLSPAKKQCYFVPYGGKLQLMKSYLGNIAATKRLKGVKDVFANVIYEGDVFEYKLNLNTGLIEIEKHEQKFENISKKILGAYAVVVRENQNNYVEVMNIEQIKNAWNQGAAKGNSQAHKNFAEEMAKKTVINRACKRFVNTSDDSDTLIESINRTNEYKEEDIIETTKSEVGEEIKENANTENLGLEDTEVVEAEVIENIEFEGDK
B7: SSAP_191: SEQ ID NO: 360 in b312 (Table 9 prints 354); Microbacterium sp. K41 (protein, listed as Microbacterium sp.)
chain: SKDLSTAAAAAKSQPTMKDLVEAQLPAIERQLGGAMNSDAFVRAVLSEIGKSPDLMNADPKTLLGGVMLAAQLRLEIGSGLGEFYLTPRKDRGRQICLPIIGYQGMIKLALRSEYVLNVQAFLVREGDDFTYGGNSERGMFYDWTPKDFEESRPWIGVVATAKMRGGGTTWVYLTRTQVIDRRPSYWASTPWKTNEDEMVKKTAVRALAKFLPKSTDLGRALEADEAKVQHLKGVDEVQVTRLDDDAETFVVQEQDPMSRTPEEQAEDEANR
B8: SSAP_20: SEQ ID NO: 189; CK3_26380 butyrate-producing bacterium SS3/4 (protein)
chain: ENATAVQQAESQGTQDFSAPVKHNTDFSLGIFGSSDNFLMATQMAKAFASSTIVPKEYQGNFANGLVAMDIANRLKTSPFMVMQNLDVIQGRPAWRATFLIAMINRSKKYDIELQFEEKRDKNGKPYSCTCWTTKDGRKVTGIEVTMDMAEAEGWTKKNGSKWITMPQVMLRYRAASFFSRMNCPELSNGLYTTDEVYEMADSEYKVYNLEDEVKRDLAQNANKEEFVAPPNETAPESESKGSEPLDPAVENQKSGDTPDWMKPETM
modifications: butyrate-producing bacterium SS3/4

How the values were obtained:
Assay type in all cases: cell-based
[1] = test system: endogenous genome targets (ACTB, HSP90AA1); test: Arrayed SSAP library screening, mKate knock-in assay (editing efficiency); settings: average of HSP90 and ACTB, 3 days after transfection; for Editing Efficiency (Normalized, Average, two targets): fold over negative control (Flag_HA); for Editing Efficiency (Absolute, Average, two targets): percent of mKate knock-in
Experimental: Arrayed SSAP library screening on endogenous genome targets (ACTB. HSP90AA1) using mKate knock-in assay.
SSAP-encoding plasmids were purified and quantified.
(§1) Each SSAP encoding plasmid was tested in duplicate, including a negative control (same plasmid encoding Flag_HA which is not expected to promote gene editing). Transfections were in 96-well plates and transfection efficiency was estimated to be 50%.
(§2) Three days after transfection, mKate positive cells and cell viability were quantified across all replicates, along with positive (original RecT SSAP) and negative (Flag-HA control protein) controls. […] At the same time, the cell viability was measured by live cell counts via flow cytometry, to help quantify the fitness effect of SSAP on mammalian cells.
(§3) SSAP proteins are identified by Uniparc deposit number and SEQ ID NO. Alignment numbers correspond to SSAPs in FIGS. 58, 59, and 60.

mammalian cells = test: Arrayed SSAP library screening, cell viability by live cell counts via flow cytometry
Experimental: as §1, §2, §3

gene editing with Cas9 = test: Screen of 322 new SSAP proteins, gene editing activity with Cas9 (Table 5); design: Cas9 with SSAP activity: scale not given here
Summary of the method: (§4)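 First, 322 new single-strand annealing proteins are identified from sequences. Next they are synthesized. Finally each is assayed for editing in combination with Cas9 and, separately, dCas9.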

gene editing with dCas9 = test: Screen of 322 new SSAP proteins, gene editing activity with dCas9 (Table 5); design: dCas9 with SSAP activity: scale not given here
Summary of the method: as §4

[2] = test system: gene editing with Cas9 and dCas9; test: Screen of 322 new SSAP proteins, activity across all experiments (Cas9 and dCas9, Table 5); design: scale not given here
Summary of the method: as §4

Row | Molecule | Editing Efficiency (Normalized, Average, two targets) [1] | Editing Efficiency (Absolute, Average, two targets) [1] | Cell Viability (Average, two targets) (mammalian cells) | Cas9 with SSAP activity (gene editing with Cas9) | Cas9 with SSAP activity (normalized) (gene editing with Cas9) | dCas9 with SSAP activity (gene editing with dCas9) | dCas9 with SSAP activity (normalized) (gene editing with dCas9) | Activity across all experiments [2]
1 | B1 | 5.372 | 13.3 | 1.071 |  |  |  |  | 
2 | B2 | 5.689 | 14.075 | 0.7361 | −0.836 | −0.308 | −2.910 | −0.482 | −1.873
3 | B3 | 6.484 | 16.05 | 0.408 |  |  |  |  | 
4 | B4 | 5.26 | 13.025 | 1.044 |  |  |  |  | 
5 | B5 | 4.599 | 11.375 | 0.9152 |  |  |  |  | 
6 | B6 | 3.832 | 9.4725 | 0.6836 |  |  |  |  | 
7 | B7 | 4.75 | 11.75 | 1.129 |  |  |  |  | 
8 | B8 | 5.982 | 14.85 | 1.174 | −0.183 | −0.399 | −4.179 | −0.615 | −2.181
